Assay results: patent publication US20140005125A1 (Molecular Partners, published 2014)

Assays:
[1] = molecular target: T1, Recombinant human PDGF-BB (human, UniProt P01127 82-190); assay: receptor competition ELISA: DARPin preincubated with PDGF-BB, free PDGF-BB captured on coated PDGFRbeta/Fc; mean IC50
T1 construct: For SPR it was chemically biotinylated on primary amines and captured on neutravidin; also called PDGF-BB (human); Reliatech 200-055
Method: The potency of PEGylated anti-PDGF-BB DARPins to inhibit the binding of human PDGF-BB to its receptor PDGFRbeta was determined in a in a receptor competition ELISA (based on PDGF-BB Quantikine, R&D Systems). PDGFRbeta/Fc chimera has been precoated on a microplate. The DARPins were preincubated in assay diluent from the PDGF-BB Quantikine kit (R&D Systems) with a defined amount of PDGF-BB and incubated at room temperature for 2 hours with shaking at 750 rpm. These preincubation mixtures were then transferred into the precoated wells and any PDGF-BB that is not blocked by the DARPins was bound by the immobilized receptor. After washing away any unbound substances, a horse radish peroxidase-linked polyclonal antibody specific for PDGF-BB was added to the wells. Following a wash to remove any unbound antibody-enzyme reagent, a substrate solution was added to the wells and color was developing in proportion to the amount of PDGF-BB bound. The color development was stopped and the intensity of the color was measured at […]. Example titration curves are given for a set of DARPins in FIG. 2. IC₅₀ values were calculated from such titration curves obtained as described above using Graph Pad Prism software and standard procedures known to the person skilled in the art.

[2] = molecular target: T1, Recombinant human PDGF-BB; assay: SPR (ProteOn), biotinylated PDGF-BB on neutravidin chip, DARPin injected; Kd from on- and off-rates
Method: (§1) Biotinylated PDGF-BB molecules from human and mouse were immobilized in a flow cell through binding to coated […] and the interaction with various selected DARPins was analyzed.
(§2) SPR was measured using a ProteOn instrument (BioRad) and measurement was performed according standard procedures known to the person skilled in the art. The running buffer was PBS, pH 7.4, containing 0.005% Tween 20®. Neutravidin was covalently immobilized on a GLC chip (BioRad) to a level of about 8000 resonance units (RU). Immobilization of PDGF-BB on the neutravidin coated chip was then performed. The interaction of DARPin PDGF-BB was then measured by injecting 100 μl running buffer (PBS containing 0.005% Tween®) containing serial dilutions of DARPins of concentration of […] (on-rate measurement), followed by a running buffer flow for between 10 minutes and up to 3 hours at a constant flow rate of 30 μl/min (off-rate measurement). The signals (i.e. resonance unit (RU) values) of an uncoated reference cell and a reference injection (i.e. injection of running buffer only) were subtracted from the RU traces obtained after injection of […] (double-referencing). From the SRP traces obtained from the on-rate and off-rate measurements the on- and off-rate of the corresponding DARPin PDGF-BB interaction can be determined.
(§3) Dissociation constants (Kd) were calculated from the estimated on- and off-rates using standard procedures known to the person skilled in the art.

[3] = molecular target: T2, Recombinant murine PDGF-BB (mouse, UniProt P31240 82-190, limits assumed); assay: as above
T2 construct: For SPR chemically biotinylated on primary amines and captured on neutravidin; also called mouse PDGF-BB; PDGF-BB (mouse)
T2 sequence (P31240 82-190 limits assumed): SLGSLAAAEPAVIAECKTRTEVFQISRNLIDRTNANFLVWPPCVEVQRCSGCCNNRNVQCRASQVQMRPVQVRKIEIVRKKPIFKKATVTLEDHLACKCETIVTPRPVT
Method: as §1, §2, §3

T1 sequence (P01127 82-190 limits assumed): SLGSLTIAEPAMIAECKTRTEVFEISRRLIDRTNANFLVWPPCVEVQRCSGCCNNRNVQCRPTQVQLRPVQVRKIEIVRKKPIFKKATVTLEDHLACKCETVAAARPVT

| Binder | IC50 [1] [nM] | Kd [2] [nM] | Kd [3] [nM] |
| --- | --- | --- | --- |
| DARPin #29 (designed binder) MRGSHHHHHHGSDLGKKLLEAARAGQDDEVRILLKAGADVNAKDEEGTTPLHYAAVWGHLEIVEVLLKAGADVNAQDIYGATPADLAALVGHEDIAEVLQKLN | 0.015 | 0.105 | – |
| DARPin #25 (designed binder) MRGSHHHHHHGSDLGKKLLEAARAGQDDEVRILMANGADVNAKDEEGTTPLHYAAVWGHLEIVEVLLKAGADVNAQDIYGATPADLAALVGHEDIAEILQKLN | – | 0.0147 | 0.0128 |
| DARPin #31 (designed binder) MRGSHHHHHHGSDLGKKLLEAARAGQDDEVRELLKAGADVNAKDEEGTTPLHYAAVFGHLEIVEVLLKAGADVNAQDIYGATPADLAALVGHEDIAEVLQKLN | 0.48 | 0.109 | – |
| DARPin #32 (designed binder) MRGSHHHHHHGSDLGHKLLQAAKHGQDDEVRILLAAGADVNAKDDEGTTPLHYAAVWGHLEIVEVLLKAGADVNAQDAYGATPADLAAFLGHEDIAEVLQKLN | – | 0.0638 | 0.0834 |
| DARPin #37 (designed binder) MRGSHHHHHHGSDLGWKLLEAARTGQDDEVRILLAAGADVNAKDITGTTPLHYAAAWGHMEIVEVLLKTGADVNAQDLYGATPADLAALLGHEDIAEVLQKLN | > 0.4 | 0.152 | 0.0828 |
| DARPin #51 (designed binder) MRGSHHHHHHGSDLGKKLLEAARAGQDDEVRILMANGADVNAKDLNGQTPLHLAADIGHLEIVEVLLKAGADVNAKDYAGSTPLRLAAWAGHLEIVEVLLKAGADVNAKDYFGYTPLHLAAYFGHLEIVEVLLKAGADVNAQDKFGKTAFDISIDNGNEDLAEILQKLN | 0.008 | 0.121 | – |
| DARPin #53 (designed binder) MRGSHHHHHHGSDLDKKLLEAARAGQDDEVRILMANGADVNAKDLNGQTPLHLAADIGHLEIVEVLLKAGADVNAKDYAGSTPLRLAAWAGHLEIVEVLLKAGADVNAKDYFGYTPLHLAAYFGHLEIVEVLLKAGADVNAQDKFGKTPADIAADNGHEDIAEVLQKLN | 0.036 | 0.128 | – |
| DARPin #54 (designed binder) MRGSHHHHHHGSDLGKKLLEAARAGQDDEVRILMANGADVNAKDLNGQTPLHLAADIGHLEIVEVLLKAGADVNAKDYAGSTPLRLAAWAGHLEIVEVLLKAGADVNAKDYFGYTPLHLAAYFGHLEIVEVLLKAGADVNAQDKSGKTPADLAADAGHEDIAEVLQKLN | 0.21 | 0.245 | – |
| DARPin #55 (designed binder) MRGSHHHHHHGSDLGKKLLEAARAGQDDEVRILLKAGADVNAKDLNGQTPLHLAADIGHLEIVEVLLKAGADVNAKDYAGSTPLRLAAWAGHLEIVEVLLKAGADVNAKDYFGYTPLHLAAYFGHLEIVEVLLKAGADVNAQDKFGKTAFDISIDNGNEDLAEILQKLN | 0.014 | 0.0555 | – |
| DARPin #56 (designed binder) MRGSHHHHHHGSDLDKKLLEAARAGQDDEVRILLKAGADVNAKDLNGQTPLHLAADIGHLEIVEVLLKAGADVNAKDYAGSTPLRLAAWAGHLEIVEVLLKAGADVNAKDYFGYTPLHLAAYFGHLEIVEVLLKAGADVNAQDKFGKTPADIAADNGHEDIAEVLQKLN | 0.17 | 0.15 | – |
| DARPin #26 (designed binder) MRGSHHHHHHGSDLGKKLLEAARAGQDDEVRILLAAGADVNAKDEEGTTPLHYAAVWGHLEIVEVLLKAGADVNAQDIYGATPADLAALVGHEDIAEILQKLN | – | 0.0177 | 0.0174 |
| DARPin #33 (designed binder) MRGSHHHHHHGSDLGHKLLQAAEQGQDDEVRILLAAGADVNAKDEYGTTPLHFAAVWGHLEIVEVLLKAGADVNAQDVFGATPADLAAYVGHEDIAEVLQKLN | – | 0.0806 | 0.0904 |
| DARPin #36 (designed binder) MRGSHHHHHHGSDLGSKLLTAALDGQDDEVRILLAAGADVNAKDEEGTTPLHYAAVVGHLEIVEVLLKAGADVNAQDIWGATPADLAALVGHEDIAEVLQKLN | – | 0.0242 | 0.053 |
| DARPin #40 (designed binder) MRGSHHHHHHGSDLGYKLLSAAQYGQDDEVRILLAAGADVNAKDYSGTTPLHYAATWGHLEIVEVLLKAGADVNAQDIYGATPADLAALIGHEDIAEVLQKLN | – | 0.0344 | 0.0608 |
| DARPin #35 (designed binder) MRGSHHHHHHGSDLGQKLLYAAEHGQDDEVRILLAAGADVNAKDQTGSTPLHYAAVWGHMEIVEVLLKAGADVNAQDLWGATPADLAAFLGHEDIAVVLQKLN | – | 0.0956 | 0.0981 |
| DARPin #42 (designed binder) MRGSHHHHHHGSDLGYKLLFAAYVGQDDEVRILLAAGADVNAKDRHGRTPLHLAAWEGHLEIVEVLLKAGADVNAKDDEGTTPLHLLAAWEGHLEIVEVLLKAGADVNAQDVYGATPADLAAYIGHEDIAEVLQKLN | – | 0.0805 | 0.0974 |
| DARPin #43 (designed binder) MRGSHHHHHHGSDLGLKLLEAAQRGQDDEVRILLAAGADVNAKDREGWTPLHVAAYEGHLEIVEVLLKAGADVNAKDYTGLTPLHVAAVWGHLEIVEVLLKAGADVNAQDIYGATPADLAAYIGHEDIAEVLQKLN | – | 1290 | 1510 |
| DARPin #47 (designed binder) MRGSHHHHHHGSDLGKKLLEAARAGQDDEVRILLKAGADVNAKDKSGHTPLHLAAYSGHLEIVEVLLKAGADVNAKDQEGTTPLHFAASVGHLEIVEVLLKAGADVNAQDHYGATPADLAALIGHEDIAEVLQKLN | 0.14 | 0.0937 | – |
| DARPin #45 (designed binder) MRGSHHHHHHGSDLGKKLLEAARAGQDDEVRELLKAGADVNAKDKSGHTPLHLAAYSGHLEIVEVLLKAGADVNAKDQEGTTPLHFAASVGHLEIVEVLLKAGADVNAQDHYGATPADLAALIGHEDIAEVLQKLN | 0.16 | 0.108 | – |
| DARPin #46 (designed binder) MRGSHHHHHHGSDLGKKLLEAARAGQDDEVRILMANGADVNAKDKSGHTPLHLAAYSGHLEIVEVLLKAGADVNAKDQEGTTPLHFAASVGHLEIVEVLLKAGADVNAQDHYGATPADLAALIGHEDIAEVLQKLN | 0.15 | 0.112 | – |
| DARPin #57 (designed binder) MRGSHHHHHHGSDLGKKLLEAARAGQDDEVRILLKAGADVNAKDLNGQTPLHLAADIGHLEIVEVLLKAGADVNAKDYAGSTPLRLAAWAGHLEIVEVLLKAGADVNAKDYFGYTPLHLAAYFGHLEIVEVLLKAGADVNAQDKSGKTPADLAADAGHEDIAEVLQKLN | 0.204 | 0.123 | – |
| DARPin #58 (designed binder) MRGSHHHHHHGSDLGKKLLEAARAGQDDEVRELLKAGADVNAKDLNGQTPLHLAADIGHLEIVEVLLKAGADVNAKDYAGSTPLRLAAWAGHLEIVEVLLKAGADVNAKDYFGYTPLHLAAYFGHLEIVEVLLKAGADVNAQDKSGKTPADLAADAGHEDIAEVLQKLN | 0.47 | 0.257 | – |
| DARPin #52 (designed binder) MRGSHHHHHHGSDLGKKLLEAARAGQDDEVRILMANGADVNAQDLNGQTPLHLAADIGHLEIVEVLLKHGADVNAQDYAGSTPLRLAAWAGHLEIVEVLLKNGADVNANDYFGYTPLHLAAYFGHLEIVDVLLKHGADVNAQDKFGKTPADIAADNGHEDIAEVLQKLN | 0.068 | – | – |
